Non-standard residues stand in square brackets, D forms with d. No end group written: not given here. pGlu = O=C1CC[C@@H](C(=O)O)N1; Nle = CCCC[C@H](N)C(=O)O

The target in assay [1] is T1, APJ (endogenous, in patient-derived GSCs) (human, UniProt P35414 1-380).
T1 construct: Endogenous receptor of patient-derived glioblastoma stem-like cells, tested on intact cells, in membrane preparations or in lysates; also called Apelin receptor; APLNR
T1 sequence: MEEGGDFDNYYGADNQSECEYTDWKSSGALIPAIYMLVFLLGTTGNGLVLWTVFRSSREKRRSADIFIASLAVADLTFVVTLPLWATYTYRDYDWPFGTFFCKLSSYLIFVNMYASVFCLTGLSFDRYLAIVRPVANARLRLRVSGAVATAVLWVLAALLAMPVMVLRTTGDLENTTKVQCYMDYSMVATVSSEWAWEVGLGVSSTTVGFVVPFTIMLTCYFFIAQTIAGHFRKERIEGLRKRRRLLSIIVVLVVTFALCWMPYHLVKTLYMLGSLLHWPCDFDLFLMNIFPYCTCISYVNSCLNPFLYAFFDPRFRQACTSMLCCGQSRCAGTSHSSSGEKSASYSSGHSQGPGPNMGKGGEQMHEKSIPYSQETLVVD
Kind of assay: radioactive binding assay in GSCs using GP130-siRNA and anti-GP130 antibodies. As for the experimental part: Prior to binding experiments, 2×10⁶ GSCs were washed three times with DMEM/F12, and resuspended in binding buffer (DMEM/F12, 40 mM HEPES, 1% BSA). In order to determine the amount of nonspecific binding, 1 μM unlabeled [<Glu⁶⁵, Nle⁷⁵, Tyr⁷⁷]apelin-13 was added. Cells were pre-incubated with GP130 blocking antibody (2 μg/ml) when indicated. Cells were then incubated with 400 pM [¹²⁵I][<Glu⁶⁵,Nlc⁷⁵,Tyr⁷⁷]apelin-13 in agitation for 6 h at 4° C., and radioactivity was measured with a gamma counter (Beckman).

Assay [2] has as its target T2, HA-APJ (transfected in HEK-293T cells) (human, UniProt P35414 1-380).
T2 construct: HA-APJ construct from Dr. L. Zheng (Chun et al., 2008); also called APJ-HA; APJ-expression plasmid; not shown: HA tag
T2 sequence: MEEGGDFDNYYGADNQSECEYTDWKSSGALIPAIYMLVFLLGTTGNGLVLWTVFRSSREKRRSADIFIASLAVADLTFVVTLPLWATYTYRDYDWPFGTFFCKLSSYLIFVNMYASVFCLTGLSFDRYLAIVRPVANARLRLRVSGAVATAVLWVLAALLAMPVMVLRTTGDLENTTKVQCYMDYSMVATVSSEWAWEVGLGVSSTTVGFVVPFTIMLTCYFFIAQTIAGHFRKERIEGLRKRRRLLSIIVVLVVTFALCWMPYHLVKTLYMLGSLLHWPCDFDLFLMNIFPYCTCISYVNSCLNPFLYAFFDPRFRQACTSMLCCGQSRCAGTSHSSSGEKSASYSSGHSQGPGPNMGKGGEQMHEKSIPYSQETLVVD
Put plainly: radioligand binding, membranes of HEK-293T transfected with APJ or with APJ and GP130. As for the experimental part:
Homogenates were cleared by 5 min centrifugation at 3000 rpm. Then cells were resuspended in binding buffer ([…] Hepes, 5 mM MgCl2 and 1% BSA) and ultracentrifuged to obtain cell membranes. Membranes were then incubated with [125I][<Glu65,Nle75,Tyr77]apelin-13 (Perkin Elmer) in 100 μl of the binding buffer at room temperature for 90 min. In order to determine the amounts of nonspecific binding, unlabeled [<Glu65,Nle75,Tyr77] apelin-13 (Sigma) was simultaneously added After incubation, bound and free radioactivities were separated through rapid filtration using the glass-fiber filter units (GF/C, Packard Instrument Co.) of a cell harvester (Packard). Filter units were completely dried, and Microcinti O (Packard) was added to each well. The radioactivity of each well was counted with a TopCount liquid scintillation counter (Packard). The dissociation constant (Kd) and the number of binding sites (B max) were determined by the method of Scatchard.

As for [pGlu]RPRLSHKGP[Nle]PY (also: 125I label, place not given here) [[125I][<Glu65,Nle75,Tyr77]apelin-13], the binding result in assay [1] and in assay [2] was “binds” in each case.
